To fix the notation:
B1: GFOD1 (parent)
chain: EEAEELAKEMSVPFYTSRIDEVLL

The text below walks through data of the supplement of paper PMC10567573.
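Note: lentivirally expressed fusions sorted by FACS into six bins by GFP to DsRed ratio, PSI derived from sequencing read proportions per bin multiplied by bin number.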

In the series the parent is B1. The series is described as follows: protein stability index of a GFP-peptide fusion (GPS, HEK-293T) (PSI 1-6); higher = more stable. The conditions noted are these: c terminus: a fixed tail appended.
For the variant EEAEELAYEMSVPFYTSRIDEVLL, the protein stability index was 2.86. As to EEAEELAAEMSVPFYTSRIDEVLL, the protein stability index was 3.66. In the case of EEAEELANEMSVPFYTSRIDEVLL, the protein stability index stood at 3.39. Turning to EEAEELAKEMSVPFYTKRIDEVLL, the protein stability index was 3.87. For EEAEELAKEMSVPFYTHRIDEVLL, the protein stability index is 3.71. In the case of EEAEELAKEMSVPFYTARIDEVLL it was 3.09; in that of EEAEELAKEMSVPFYTSVIDEVLL, 2.64. To EEAEELAKEMSVPFYTSHIDEVLL belongs 4.57. For EEAEELAKEMSVPFYTSLIDEVLL, the protein stability index was 3.05. For the variant EEAEELAKEMSVPFYTSNIDEVLL, the protein stability index worked out at 4.4.

Consider EEAEELAKEMSVPFYTSPIDEVLL, for which the protein stability index was 4.15. In the case of EEAEELAKEMSVPFYTSMIDEVLL, the protein stability index was 3.43.

Turning to EEAEELAKEMSVPFYTSKIDEVLL, the protein stability index was found to be 4.26.

Consider EEAEELAKEMSVPFYTSIIDEVLL, for which the protein stability index worked out at 2.92. To EEAEELAKEMSVPFYTSSIDEVLL belongs 4.56; to EEAEELAKEMSVPFYTSYIDEVLL, 4.04; to EEAEELAKEMSVPFYTSTIDEVLL, 4.27. In the case of EEAEELAKEMSVPFYTSRIDEVTL, the protein stability index is 3.87.

EEAEELAKEMSVPFYTSRIDEVIL: the protein stability index was determined as 3.66. In the case of EEAEELAKEMSVPFYTSRIDEVWL, the protein stability index came out at 3.02.

On to EEAEELAKEMSVPFYTSRIDEVPL, for which the protein stability index stood at 4.57. Turning to EEAEELAKEMSVPFYTSRIDEVHL, the protein stability index stood at 3.9. Turning to EEAEELAKEMSVPFYTSRIDEVFL, the protein stability index was determined as 2.98. In the case of EEAEELAKEMSVPFYTSRIDEVYL it was 3.42. On to EEAEELAKEMSVPFYTSRIDEVEL, for which the protein stability index came to 5.13. In the case of EEAEELAKEMSVPFYTSRIDEVSL it was 4.54; in that of EEAEELAKEMSVPFYTSRIDEVRL, 4.31.

As to EEAEELAKEMSVPFYTSRIDEVNL, the protein stability index is 4.21. As for EEAEELAKEMSVPFYTSRIDEVQL, the protein stability index came to 4.72. In the case of EEAEELAKEMSVPFNTSRIDEVLL it was 4.83; in that of EEAEELAKEMSVPFLTSRIDEVLL, 3.67. With EEAEELAKEMSVPFKTSRIDEVLL, the protein stability index is 4.41. Consider EEAEELAKEMSVPFRTSRIDEVLL, for which the protein stability index was found to be 4.2. On to EEAEELAKEMSVPFMTSRIDEVLL, for which the protein stability index came to 4.14. To EEAEELAKEMSVPFWTSRIDEVLL belongs 3.1; to EEAEELAKEMSVPFPTSRIDEVLL, 5. To EEAEELAKEMSVPFTTSRIDEVLL belongs 4.91; to EEAEELAKEMSVPFCTSRIDEVLL, 3.97. On to EEAEELCKEMSVPFYTSRIDEVLL, for which the protein stability index is 4.06. In the case of EEAEELMKEMSVPFYTSRIDEVLL it was 3.14; in that of EEAEELPKEMSVPFYTSRIDEVLL, 4.5. As to EEAEELLKEMSVPFYTSRIDEVLL, the protein stability index is 2.93. Regarding EEAEELEKEMSVPFYTSRIDEVLL, the protein stability index was 3.87. In the case of EEAEELRKEMSVPFYTSRIDEVLL it was 3.62.

Consider EEAEELSKEMSVPFYTSRIDEVLL, for which the protein stability index turned out to be 3.6. Turning to EEAEELFKEMSVPFYTSRIDEVLL, the protein stability index came out at 2.99. To EEAEELWKEMSVPFYTSRIDEVLL belongs 2.39; to EEAEELHKEMSVPFYTSRIDEVLL, 4.2; to EEAEELQKEMSVPFYTSRIDEVLL, 4.06. For EEAEELAKEMSVPFYTSRIDQVLL, the protein stability index is 3.39.

As to EEAEELAKEMSVPFYTSRIDWVLL, the protein stability index was 1.83. For EEAEELAKEMSVPFYTSRIDYVLL, the protein stability index amounted to 2.66.

Take EEAEELAKEMSVPFYTSRIDDVLL: the protein stability index was found to be 4.08. In the case of EEAEELAKEMSVPFYTSRIDSVLL, the protein stability index was found to be 3.83. For the variant EEAEELAKEMSVPFYTSRIDPVLL, the protein stability index was 3.92. For the variant EEAEELAKEMSVPFYTSRIDFVLL, the protein stability index stood at 1.42. Regarding EEAEELAKEMSVPFYTSRIDTVLL, the protein stability index is 3.65. Take EEAEELAKEMSVPFYTSRIDEVLF: the protein stability index is 3.55. In the case of EEAEELAKEMSVPFYTSRIDEVLC it was 4.04; in that of EEAEELAKEMSVPFYTSRIDEVLE, 4.97. Regarding EEAEELAKEMSVPFYTSRIDEVLD, the protein stability index was found to be 5.2.

For the variant EEAEELAKEMSVPFYTSRIDEVLQ, the protein stability index was determined as 4.78.

On to EEAEEMAKEMSVPFYTSRIDEVLL, for which the protein stability index was 4.01. In the case of EEAEEEAKEMSVPFYTSRIDEVLL it was 4.67.

As for EEAEEWAKEMSVPFYTSRIDEVLL, the protein stability index amounted to 3.75. As for EEAEEFAKEMSVPFYTSRIDEVLL, the protein stability index is 3.93. Turning to EEAEENAKEMSVPFYTSRIDEVLL, the protein stability index was found to be 4.51. To EEAEEIAKEMSVPFYTSRIDEVLL belongs 3.73; to EEAEEAAKEMSVPFYTSRIDEVLL, 4.38. Consider EEAEESAKEMSVPFYTSRIDEVLL, for which the protein stability index turned out to be 4.19. Consider EEAEEYAKEMSVPFYTSRIDEVLL, for which the protein stability index amounted to 3.95. Take EEAEEQAKEMSVPFYTSRIDEVLL: the protein stability index worked out at 3.7. Regarding EEAEELAKEMSVQFYTSRIDEVLL, the protein stability index was 3.47. On to EEAEELAKEMSVTFYTSRIDEVLL, for which the protein stability index is 4.03. EEAEELAKEMSVNFYTSRIDEVLL: the protein stability index came out at 3.78. Consider EEAEELAKEMSVCFYTSRIDEVLL, for which the protein stability index amounted to 3.27.

Consider EEAEELAKEMSVVFYTSRIDEVLL, for which the protein stability index was 2.74. In the case of EEAEELAKEMSVIFYTSRIDEVLL it was 2.03; in that of EEAEELAKEMSVMFYTSRIDEVLL, 3.32.

Regarding EEAEELAKEMSVSFYTSRIDEVLL, the protein stability index was determined as 3.47. Take EEAEELAKEMSVEFYTSRIDEVLL: the protein stability index came to 3.97.

On to EEAEELAKEMSQPFYTSRIDEVLL, for which the protein stability index amounted to 3.91. Take EEAEELAKEMSDPFYTSRIDEVLL: the protein stability index worked out at 3.47. For the variant EEAEELAKEMSYPFYTSRIDEVLL, the protein stability index was found to be 4.22. Take EEAEELAKEMSLPFYTSRIDEVLL: the protein stability index was found to be 3.67. Take EEAEELAKEMSRPFYTSRIDEVLL: the protein stability index came out at 3.89.

EEAEELAKEMSFPFYTSRIDEVLL: the protein stability index was determined as 2.91. To EEAEELAKEMSGPFYTSRIDEVLL belongs 4.26. In the case of EEAEELAKEMSVPFYTSRPDEVLL it was 4.48. Turning to EEAEELAKEMSVPFYTSRGDEVLL, the protein stability index worked out at 4.48. Consider EEAEELAKEMSVPFYTSRMDEVLL, for which the protein stability index was 3.2. With EEAEELAKEMSVPFYTSRVDEVLL, the protein stability index stood at 4.31.

With EEAEELAKEMSVPFYTSRHDEVLL, the protein stability index is 4.85. As to EEAEELAKEMSVPFYTSRYDEVLL, the protein stability index is 4.64.
